Experiment: yeast display, Sf9 membrane polyspecificity reagent, FACS + sequencing; frameworks hold sequencing errors
Outline: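 Galactose induction of a Saccharomyces cerevisiae BJ5465 synthetic nanobody display library ran 36–48 hours. The cells were then stained for 1 hour at 4 °C with 10% biotinylated, detergent-solubilized Sf9 membrane reagent, pulled down on streptavidin microbeads and FACS-sorted into low and high (top ~1%) gates on expression and reagent-binding fluorescence. Labels for polyreactivity follow the gate of origin.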

Row | Sequence | polyreactivity (PSR sort gate)
1 | QVQLGESGGGLVPAGGSLRLSCAASGGTFKTNAMGWYRQAPGKERELVAAITGSGTSTYYADSVKGRFTISRDNAKNTVYLHMNSLKPEDTAVYYCAADNLYHPGIGDDYWGQGTQVTVSS | low polyreactivity
2 | QVQLGESGGGLVQAGGCLRLSCAASGSIFAANAMGWYRQAPGKERELVAAINSGDSTNYADSVKGRFTISRDYAKKTVYLQMNSLKPEDTAVYYCARGLEERYDYWGQGTQVTVSS | low polyreactivity
3 | QVQLGESGGGLVQAGGSLRLICAASGSIFDQYAMGWSRPAPGKERELVAAIDTSGGSTYYADSVKGRFTISRDNAKYTVYLQMNSLKPEDTAVYYCAARGDGTFYEGYDYWGQGTQVTVSS | low polyreactivity
4 | QVQLGESGGGLVQAGGSLRLSCAASGFIFFSNAMGWYRQAPGKERELVAAIRSGGSTNYADSVKGRFTISRDNAKNTVYLQMNSQKPEDTAVYYCNVLWLRSRRKYDYWGQGTQVTVSS | low polyreactivity
5 | QVQLGESGGGLVQAGGSLRLSCAASGFTFRIYTMGWYRQAPGKERELVAAISSRGGSTYYADSVKGRFTISRDNAKNTVYLQMNSLKPEDTAVYYCAASGRVYSSGYDYWGQGTQVTVSS | high polyreactivity
6 | QVQLGESGGGLVQAGGSLRLSCAASGNTFYRNAMGWYRQAPGKERELVAAIDYSAGSTYYADCVKGRFTISRDNAKNTVYLQMHSLKPEDTADDYCAAVARTSRGRRYYSWGQGTQVTVSS | low polyreactivity
7 | QVQLGESGGGLVQAGGSLRLSCAASGRIFSAYAMGWSRQEPGKERELVAAITRSGGSTYYADSVKGRFTISRDNAKNTVYLQMNSLKPEDTAVYYCAAGYFVSDAWSWYHWVEHGYWGQGTQVTVSS | high polyreactivity
8 | QVQLGESGGGLVQAGGSLRLSCAASGRISGYAMGWYRQAPGKERELVAAISKSAARTYYADSVKGRFTISRDNAKNTVYLQMNSLKPEDTAVYYCAADKPYRYDYWGQGTQVTLSS | high polyreactivity
9 | QVQLGESGGGLVQAGGSLRLSCAASGRNFSTYTMGWYRQATWKERELVASISWSGVRTRYADSVKGRFTISRDNAKNTVYLQMNSLKPEDTAVYYCAAVVPYYYRSPSNHMGYWGQGTQVTVSS | high polyreactivity
10 | QVQLGESGGGLVQAGGSLRLSCAASGRTFSYYAKGWNRPAPGKERELVGAISSTGGSTYYADSVKGRFTISRDNAKNTVYLQMNSLKPEDTAVYYCAARWYVLYYRGGYCGQGTQVTVSS | low polyreactivity
11 | QVQLGESGGGLVQAGGSLRLSCAASGRTFVSNAMGWYRPAPGNERELVAAITQSGGSTYADSVKGRFTISRDNAKNTVYLQMNSLKPEDTAVYYCNADHAFVGTYYERHDYWGQGTQVTVSS | low polyreactivity
12 | QVQLGESGGGLVQAGGSLRLSCAASGSIFFLYAMGWYRQAPGKERELVAAISLSTGNTYYADSVKGRFTISRDNAKNTVYVQKNSLKPEDTAVYYCAAEDYWSAYYWGQGTQVTVSS | high polyreactivity
13 | QVQLGESGGGLVQAGGSLRLSCAASGSIFGSYAMGWYRQATGKERELVAAISYSGGTTYYADSVKGRFTNSRDNAKNTVYLQMNSLKPEDTAVYYCNAPVAYEREYEYWGQGTQVTVSS | low polyreactivity
14 | QVQLGESGGGLVQAGGSLRLSCAASGSIFVPYAMGWYRQAPGKERELVAVITSGGSTYYADSVKGRFTISRDNAKNTVYLQMNSLKPEDTAVYYCYADLYYVWSTLSQFDYWGQGTQVTVSS | low polyreactivity
15 | QVQLGESGGGLVQAGGSLRLSCAASGSIFYGYAMGWYRHAPGKERELVAAITRDGSTNYADSVKGRFTISLDNAKNTVYLQMNSLKPEDTAVYYCAADTRSRRLSLVRRDYWGQGTQVTVSS | high polyreactivity
16 | QVQLGESGGGLVQAGGSLRLSCAASGSIVDVYAMGWYRPAPGKERELVADITSGDITNYADSVKGRFTISRDNAKNTVYLQMNSLKPEDTAVYYCATPLKLAYSPKLDYWGQGTQLTVSS | low polyreactivity
17 | QVQLGESGGGLVQAGGSLRLSCAASGSTFAYNERGWYSQAPGHERELVADIRSGGNTNYADSVKGRFTISRDNAKNTVYLQMPSLKPEDTAVYYCATDGYRIDVYHPDYRYDYWGQGTQVTVSS | low polyreactivity
18 | QVQLGESGGGLVQAGGSLRLSCAASGSTFIDYAMGWYRQAPGKERELVAAITNGGNTKYADSVKGRFTISRDNAKNTVYLQMNSLKPEDTAVYYCAKYYYTSIVGYDSWGQGTQVTVSS | low polyreactivity
19 | QVQLGESGGGLVQAGGSLRLSCAASGSTFVVYAMGWYRQAPGKERELVAAITRGASTTYADSVKGRFTISRDNAKNTVYLQMNSLKPEDTAVYYCAAAVAYEYLQSAYTRYYYWGQGTQVTVSS | high polyreactivity
20 | QVQLGESGGGLVQAGGSLRLSCAASGSTFWPYAMGWYRQAPGKERELVATIRWSGGSTSYADSVKGRFTISRDNAKNTVYLQMNSVKPEDTAVFYCAARDFHYYRFKTYGYWGQGTQVTVSS | high polyreactivity
21 | QVQLGESGGGLVQAGGSLRLSCAASGSTFYVYAQGWYRPAPGKERELVAAISSSGARTYYADSVKGRFTISRDNAKNTVYLQMNCLKPDDTAVLYCAARRYYKFYYWGHGTQVTVSS | high polyreactivity
22 | QVQLGESGGGLVQAGGSLRLSCAASGSTIRRYTMGWYRQAPGKERELDAAITGSGGSTYYADSVKGRFTISRDNAKNTVYLQMNSLKPEDPAVYYCAAPPWRRIVGGIYDYWGQGTQVTVSS | high polyreactivity

Row | Sequence | polyreactivity (PSR sort gate)
23 | QVQLGESGGGLVQAGGSLRLSCAASGYTFRPYAMGGYRQAPGKESELVAAISSGDSTNYADSVKGRFTISRDNAKNTVYLQMNSLNPEDTAVYYCAARRVGGGFYTWRNPAYEYWGQGTQVTVSS | high polyreactivity
24 | QVQLGESGGGLVQAGGSLRLSCAGSGRTFVRSARGWSSQAPGKARELVARITSRGTSTYYADSVKGRFTSSRDNAKNTDYLLMNSLNPEDNAVYYCNNVRTFRDNSRYDYWGQGTHVTVSS | low polyreactivity
25 | QVQLGESGGGLVQAGGSLSLSCAASGFSISWYVMGWYRLAPGKERELVAAISWSGDRTYYADSVKGRFTISRDNAKNTVYLQMNSLKPEDTAVFYCAARRWRKYFSGYNYWGQGTQVTVSS | high polyreactivity
26 | QVQLGESGGGLVQAGGSLSLSCAASGNTFVSNAMGWYRQATGKERELVATISSGAHTYYADSVKGRFTISRDNAKNTVYLQMKSLKPEDTAVYYCASTSYGYWVGYIPEVDFWGQGTQVSVSS | low polyreactivity
27 | QVQLGESGGGLVQSGGSLRLSCAASGSIFDWYDKGWYRQAPGKERELVATITRDGSTNYADSVKGRFTISRDNAKNTVYLQMNSLKPEDTAVYYCAAESRRFWYGLFGNEYGYWGQGTQVTVSS | low polyreactivity
28 | QVQLGESGLGLVQAGGSLRLSCAAYGSIFYIYAMGWYRQAPGKERELVAAISRSGGRTYYADSVKGRFTISRDNAKNTVYLQMNSLKPEYTAVYYCAARDHYSNGGMNYWGQGTQVTVSS | high polyreactivity
29 | QVQLGESRGGLVQAGGSLRLSCAASGTFAYKTIGWYRQAPGKEREWVAAITSSGGSTYYADSVKGRFTISRDNAKNTVYVLMNSLKPEDTAVYYCDKGSTWYYRKYDYWGQGTQVTVSS | high polyreactivity
30 | QVQLHESAGGLVQAGGSLRLRCSASGYISCDASRGWYRQAPGKERELAASITKGSSTNYADSVKGRFTIRDNAKNTVYLQMNRLKPEDTAVCYCAVTYPYWGDYTYWGQGTQVTVSS | low polyreactivity
31 | QVQLHESGGGLVQAGGSLRLICAASGSISILQSMGWYRQAPGKERELVAGINWGATTYYADRVKGRLTTSRDYAKNTVYLQMNSLKPEATAVYYCAVPTYYTNPLLYWGQGTQVTVSS | low polyreactivity
32 | QVQLIESGGGLDQAGGSLRLSCAASGFIFWEYAMGWYRQAPGKERELVAGISTSGGSTYYADSVKGLFTISRDNAKNTVYLQMNSLKPEDTAVYYCAVEGWDDTYFRQDMDYWGQGTQVTVSS | low polyreactivity
33 | QVQLIESGGGLVQAGGSLRLSCAASGIIFYDYAMGWYRPAPGKERELVATITSGGSTNYADSVKGRFTISRDNAKNTVYLQMNSLKPEDTAVYYCAAGRGLILGGVYGYDYWGQGTQVTVSS | low polyreactivity
34 | QVQLIESGGGLVQAGGSLRLSCAASGRTFGRYTMGWYRQAPGKERELVADISGTGGRTYYSDSVKGRFTISRDNAKNTVYLQMNSLKPEDTAVYYCNAVLHRRFDYWGQGTQVTVSS | high polyreactivity
35 | QVQLKESGGGQVQAGGSLRLCCAASGKIIPDAGMGWYRQAPGKEREFVAGISRGANTYYADSVKGRFTISRDNAKNTLYLHMYSLKPEDTAVFYCAVNVPWTYQYGYWGQGTQVTVSS | high polyreactivity
36 | QVQLLDSGGGLVQAGGSLRLSCAASGSIFGRNAMVWYRQAPGKEREFVATITSRGGRTYYADSVKGRFTISRDNAKNTVYLQMNSLKPEDTAVYYCAADTYISTLKKYRLGDYWGQGTQVTVSS | low polyreactivity
37 | QVQLLESGAGLVHAGGSLRISCAASGRTFGLNAMAWNPPAHGKETELVAAISSSGGSTYYADSVKGRFTISRDNPKNTVYLQMNSLTPEDTAVYYCAKVLNRYGTAYYYWGQGTQVTVSS | high polyreactivity
38 | QVQLLESGAGLVQAGGSLRLSCAAYGSTSYDYAMGWYRQAPGKERELVAAISGSSSTTYYADSVKGRFTISRDNAKNTVYLQMNSLKPEDTAVYYCNAVTTSGYGYGYWGQGTQVTVSS | low polyreactivity
39 | QVQLLESGAGLVQAGGSLRLSSAASGSIFNLNAMAWYRQAPGKERELVAGIRWSGGRTYYADSVKGRFTISRDNAKNTVYLQMNSLKPVDNEVYYCTAVGYLSWWYDYEYWGQGTQVTVST | high polyreactivity
40 | QVQLLESGGGIVQAGGSLRLSCDSSGSTFGTNAMGWYRQAPGKERELVAVITFSGGSTYYADSVKGRFTISRDNAKNTVYLQMNSLKPEDTAVYYCAKDGFITFVYDHDYWGQGTQVTVSS | low polyreactivity
41 | QVQLLESGGGKVQAVGSLRLSCAASGSIDDWYAMGWYRQAPGKERELLAAINEGGGSTYYADSVKGRFTISRDNAKNTVYFQMNILKPEDTAFYYCNAELSFRYPVFRELDYWGQGSQVTVSS | low polyreactivity
42 | QVQLLESGGGLDQAGGSLRISCPASGSIFWSNAMGWYRQAPGKEREFVAALTWSGDNTYFADSVKGRFTISRENAKNTVDLQMNSLKPEDTAVYYCAAVFQNKAVGGVTSIYDCRGQGTQVTVSS | low polyreactivity
43 | QVQLLESGGGLVHAGGSLRLSCAASGSIFPYYAMGWYRQAPGKERELVAAISDSGDSTYYADSVKGRFTISRDNAKNTVYLQMNSLKPEDTAVYYCNADSRTDYHPHGTMVGPDREYWGQGTQVTVSS | low polyreactivity

From the nanobody polyreactivity screen of Harvey et al. (2022)
